This is an account of results in patent publication US20120231005A1 (Merck Sharp & Dohme, published 2012).

Where a chain is given by its changes, count along the chain named.

The target in assay [1] is T1, human PCSK9 (human, UniProt Q8NBP7 31-692, limits assumed).
T1 construct: It carried an AlexaFluor647 label in the TR-FRET assay only; also called hPCSK9; wild type human PCSK9
The assay is described as follows: affinity table, IgG2 (Biacore). Here is the method: (§1) The affinities of those IgG molecules were also measured by Biacore assay. Briefly, anti-human IgG monoclonal antibody form Human Antibody Capture Kit provided by Biacore was immobilized on CM5 chips at a level of 8000 to 10000 RU. […] After each round injection, the sensor chip surface was regenerated by 30 second injection of 3M Magnesium Chloride.
A general note: Surface plasmon resonance follows binding to a sensor surface in real time, without labels.

The target of assay [2] is T2, rat PCSK9 (rat, UniProt P59996 31-691, limits assumed).
T2 construct: also called rPCSK9
T2 sequence (P59996 31-691 limits assumed): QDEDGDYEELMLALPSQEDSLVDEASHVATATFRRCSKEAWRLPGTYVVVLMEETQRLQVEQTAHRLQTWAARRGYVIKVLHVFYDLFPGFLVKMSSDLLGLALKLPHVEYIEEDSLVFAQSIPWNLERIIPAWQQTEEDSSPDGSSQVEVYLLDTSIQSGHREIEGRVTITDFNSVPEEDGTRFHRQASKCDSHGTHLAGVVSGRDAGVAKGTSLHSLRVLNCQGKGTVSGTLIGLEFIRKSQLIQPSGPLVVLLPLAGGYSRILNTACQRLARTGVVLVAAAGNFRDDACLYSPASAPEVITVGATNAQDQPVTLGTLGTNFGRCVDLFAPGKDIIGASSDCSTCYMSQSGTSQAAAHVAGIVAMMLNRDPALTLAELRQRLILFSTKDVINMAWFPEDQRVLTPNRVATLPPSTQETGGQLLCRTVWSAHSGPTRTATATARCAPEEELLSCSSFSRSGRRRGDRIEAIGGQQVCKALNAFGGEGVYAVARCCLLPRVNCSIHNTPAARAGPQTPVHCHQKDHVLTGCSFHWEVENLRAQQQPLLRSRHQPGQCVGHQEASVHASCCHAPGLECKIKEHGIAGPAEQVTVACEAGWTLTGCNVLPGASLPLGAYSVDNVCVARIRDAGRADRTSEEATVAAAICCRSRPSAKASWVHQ
The assay is described as follows: affinity table, IgG2 (Biacore). Here is the method:
as §1

Assay [3] has as its target T3, mouse PCSK9 (mouse, UniProt Q80W65 35-694, limits assumed).
T3 construct: also called Mouse PCSK9 9
The assay is described as follows: affinity table, IgG2 (Biacore). The method, then:
as §1

The target in assay [4] is T1, human PCSK9. The assay is described as follows: affinity table, IgG2 (Biacore). Here is the method:
as §1
This is another data set of the same source.

Assay [5] has as its target rhesus PCSK9 (rhesus). The assay is described as follows: SPR (Biacore); IgG captured on anti-human IgG, PCSK9 injected.
Assay [6] deals with T1, human PCSK9. The assay is described as follows: cell-based or functional assay.
For assay [7], the target named is rhesus PCSK9 (rhesus). The experiment in a line: affinity table, IgG2 (Biacore).
The target of assay [8] is T1, human PCSK9. The experiment in a line: SPR (Biacore); IgG captured on anti-human IgG, PCSK9 injected. The method, then: as §1
Assay [9] addresses rhesus PCSK9 (rhesus, UniProt A8T644 31-692 (Pan troglodytes entry), limits assumed). The experiment in a line: cell-based or functional assay.
The target in assay [10] is T1, human PCSK9. The experiment in a line: TR-FRET; antibody titrated against 10 nM AF647-PCSK9 and about 4 nM Eu-LDLR ectodomain. Here is the method:
After at least 90 minutes of equilibration, samples were read in a Rubystar reader (BMG Corp.) using 20 flashes per well, a 50 μsec integration delay, and a 200 μsec total integration time.
In general terms: In TR-FRET formats the signal depends on donor and acceptor labels being close together.

Assay [11] concerns the target rhesus PCSK9 (rhesus). The assay is described as follows: cell-based or functional assay.
Assay [12] addresses T4, human FcRn (human, UniProt P55899 24-297; P61769 21-119, limits assumed).
T4 construct: Beta-2-microglobulin is not mentioned for the purified protein; also called human FeRn
The experiment in a line: Biacore; human FcRn immobilised, 100 nM mAb bound at pH 6.0, read 5 s into dissociation at pH 7.3. Here is the method:
The neutral pH dissociation of mAbs from human FeRn was measured by SPR using a Biacore T-100 instrument. Briefly, purified FeRn protein was immobilized onto a Biacore CM5 biosensor chip and PBSP (50 mM NaPO4, 150 mM NaCl and 0.05% (v/v) Surfactant 20) pH 7.3 was used as running buffer. The mAbs were diluted with PBSP pH 6.0 to 100 nM, allowed to bind FcRn for 3 minutes to reach equilibrium and followed by 1 minute of dissociation in pH 7.3 running buffer. A report point (Stability) was inserted at 5 seconds after the end of mAb binding and the “% bound” was calculated as RUStability/RUBinding (%).

T3 sequence (Q80W65 35-694 limits assumed): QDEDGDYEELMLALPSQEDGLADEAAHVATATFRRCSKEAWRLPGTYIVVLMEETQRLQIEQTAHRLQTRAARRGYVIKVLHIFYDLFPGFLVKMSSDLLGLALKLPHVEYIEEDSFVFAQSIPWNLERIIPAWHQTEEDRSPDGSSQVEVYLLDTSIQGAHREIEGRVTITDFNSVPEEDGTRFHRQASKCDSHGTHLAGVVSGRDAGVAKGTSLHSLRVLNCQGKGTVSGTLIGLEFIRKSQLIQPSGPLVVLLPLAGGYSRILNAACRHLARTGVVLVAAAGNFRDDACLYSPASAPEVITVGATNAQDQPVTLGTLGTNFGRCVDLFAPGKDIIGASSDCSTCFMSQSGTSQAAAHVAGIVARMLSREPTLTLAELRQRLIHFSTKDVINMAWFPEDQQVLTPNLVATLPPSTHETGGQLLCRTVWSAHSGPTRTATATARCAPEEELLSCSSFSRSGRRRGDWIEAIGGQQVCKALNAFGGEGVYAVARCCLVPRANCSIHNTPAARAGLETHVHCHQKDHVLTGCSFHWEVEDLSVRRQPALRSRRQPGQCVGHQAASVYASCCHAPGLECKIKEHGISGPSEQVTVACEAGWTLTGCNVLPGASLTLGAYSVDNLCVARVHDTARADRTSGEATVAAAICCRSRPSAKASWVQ
T1 sequence (Q8NBP7 31-692 limits assumed): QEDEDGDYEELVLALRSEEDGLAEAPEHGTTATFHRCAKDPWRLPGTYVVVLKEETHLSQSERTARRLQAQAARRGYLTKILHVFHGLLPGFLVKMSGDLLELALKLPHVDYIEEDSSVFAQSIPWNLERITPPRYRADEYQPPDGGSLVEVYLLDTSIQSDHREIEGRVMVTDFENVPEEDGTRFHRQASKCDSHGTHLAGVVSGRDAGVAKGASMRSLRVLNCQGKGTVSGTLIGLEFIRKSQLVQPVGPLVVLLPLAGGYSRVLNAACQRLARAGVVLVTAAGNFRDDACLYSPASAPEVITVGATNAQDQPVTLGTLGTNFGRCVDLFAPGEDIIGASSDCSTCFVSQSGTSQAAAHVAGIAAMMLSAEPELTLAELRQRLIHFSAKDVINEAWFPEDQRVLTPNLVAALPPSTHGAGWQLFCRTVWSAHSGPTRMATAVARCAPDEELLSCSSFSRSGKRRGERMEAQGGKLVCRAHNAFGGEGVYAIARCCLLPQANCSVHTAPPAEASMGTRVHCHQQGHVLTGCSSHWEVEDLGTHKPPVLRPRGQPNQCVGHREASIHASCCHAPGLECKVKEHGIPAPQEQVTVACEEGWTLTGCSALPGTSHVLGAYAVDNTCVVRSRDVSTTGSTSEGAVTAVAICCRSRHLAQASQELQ
T4 sequence (P55899 24-297 limits assumed, form in doubt, chain 1 of 2): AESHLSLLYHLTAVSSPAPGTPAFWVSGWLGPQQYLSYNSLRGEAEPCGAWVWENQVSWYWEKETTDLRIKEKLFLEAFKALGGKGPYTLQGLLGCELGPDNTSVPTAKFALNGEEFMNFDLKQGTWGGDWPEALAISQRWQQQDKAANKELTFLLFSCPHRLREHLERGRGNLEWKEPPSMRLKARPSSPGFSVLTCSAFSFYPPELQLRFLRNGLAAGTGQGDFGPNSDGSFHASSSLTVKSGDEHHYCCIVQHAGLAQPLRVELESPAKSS
T4 sequence (P61769 21-119 limits assumed, form in doubt, chain 2 of 2): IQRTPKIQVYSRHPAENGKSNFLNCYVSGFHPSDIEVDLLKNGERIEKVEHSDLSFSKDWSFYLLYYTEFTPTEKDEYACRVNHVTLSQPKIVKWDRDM

B1: AX132 IgG2 (antibody, V domains shown)
VH: EVQLLESGGGLVQPGGSLRLSCKASGYTFSSYGMYWVRQAPGKGLEWIGWIDPGSGGTKYNEKFKGKATISRDNSKNTLYLQMNSLRAEDTAVYYCARERYGYYFDYWGQGTLVTVSS
VL: EIVLTQSPATLSLSPGERATITCRASQYVGSYLNWYQQKPGQAPRLLIYDASNRATGIPARFSGSGSGTDFTLTISSLEPEDFAVYYCQVWDSSPPVVFGGGTKVEIK
One may read the Kd as a measure of binding affinity in units of concentration. A high value points to weaker binding. As for B1, the Kd in assay [1] came to 6.16 nM; in [2] it was 100 nM; in assay [3], 2.76 nM.

B2: AX1DG IgG2 (antibody, V domains shown)
VH: EVQLLESGGGLVQPGGSLRLSCKASGFTFTSYYMHWVRQAPGKGLEWIGRINPDSGSTKYNEKFKGRATISRDNSKNTLYLQMNSLRAEDTAVYYCARGGRLSWDFDVWGQGTLVTVSS
VL: DIQMTQSPSSLSASVGDRVTITCRASQDISRYLAWYQQKPGKAPKLLIYAASSLQSGVPSRFSGSGSGTDFTLTISSLQPEDFATYYCAAYDYSLGGYVFGGGTKVEIK
notes: IgG2; also called AXIDG
For the molecule B2, the Kd in [4] came out at 4.61 nM; in assay [1], 4.61 nM; in [5], 3.6 nM; in assay [7] it was 8.1 nM; in assay [8] it was 4.61 nM. The binding result in assay [2] and in [3] was “no binding” each time. Also, in assay [6], the “IgG IC50 (nM), inhibition of PCSK9 on LDL uptake (Exopolar assay)” value was 7.4 nM.

B3: AX9 IgG1 (antibody, V domains shown)
VH: EVQLLESGGGLVQPGGSLRLSCKASGYTFSSYWMHWVRQAPGKGLEWIGRIDPYNGGTKYNEKFKGKATISRDNSKNTLYLQMNSLRAEDTAVYYCARYGYYLGSYAMDYWGQGTLVTVSS
VL: B2 VL with I29V, R31K, A89Q, A90V, Y93S, L95P, G96N, G97A
Turning to B3, the “IgG IC50 (nM), inhibition of PCSK9 on LDL uptake (Exopolar assay)” value in [9] came out at 30.3 nM; in assay [6], 10.7 nM.

B4: AX9 IgG2 (antibody)
heavy: EVQLLESGGGLVQPGGSLRLSCKASGYTFSSYWMHWVRQAPGKGLEWIGRIDPYNGGTKYNEKFKGKATISRDNSKNTLYLQMNSLRAEDTAVYYCARYGYYLGSYAMDYWGQGTLVTVSSASTKGPSVFPLAPCSRSTSESTAALGCLVKDYFPEPVTVSWNSGALTSGVHTFPAVLQSSGLYSLSSVVTVPSSNFGTQTYTCNVDHKPSNTKVDKTVERKCCVECPPCPAPPVAGPSVFLFPPKPKDTLMISRTPEVTCVVVDVSHEDPEVQFNWYVDGVEVHNAKTKPREEQFNSTFRVVSVLTVVHQDWLNGKEYKCKVSNKGLPAPIEKTISKTKGQPREPQVYTLPPSREEMTKNQVSLTCLVKGFYPSDIAVEWESNGQPENNYKTTPPMLDSDGSFFLYSKLTVDKSRWQQGNVFSCSVMHEALHNHYTQKSLSLSPGK
light: DIQMTQSPSSLSASVGDRVTITCRASQDVSKYLAWYQQKPGKAPKLLIYAASSLQSGVPSRFSGSGSGTDFTLTISSLQPEDFATYYCQVYDSSPNAYVFGGGTKVEIKRTVAAPSVFIFPPSDEQLKSGTASVVCLLNNFYPREAKVQWKVDNALQSGNSQESVTEQDSKDSTYSLSSTLTLSKADYEKHKVYACEVTHQGLSSPVTKSFNRGEC
The IC50 is the concentration needed to halve the response being measured. Consider B4, for which the IC50 in assay [10] amounted to 4.1 nM. Further, the values for the IgG IC50 (nM), inhibition of PCSK9 on LDL uptake (Exopolar assay) in [11] and in assay [6] were 28.6 nM and 25.5 nM, respectively. Further, the Kd turned out to be 20.6 nM in assay [1], 8.82 nM in [5], 8.82 nM in [7] and 20.6 nM in [8]. Also, the binding result in [2] and in assay [3] was “no binding” each time. Further, in assay [12], the “% bound (RUStability/RUBinding)” value turned out to be 1%.

B5: AX1 IgG2 (antibody)
heavy: EVQLLESGGGLVQPGGSLRLSCKASGFTFTSYYMHWVRQAPGKGLEWIGRINPDSGSTKYNEKFKGRATISRDNSKNTLYLQMNSLRAEDTAVYYCARGGRLSWDFDVWGQGTLVTVSSASTKGPSVFPLAPCSRSTSESTAALGCLVKDYFPEPVTVSWNSGALTSGVHTFPAVLQSSGLYSLSSVVTVPSSNFGTQTYTCNVDHKPSNTKVDKTVERKCCVECPPCPAPPVAGPSVFLFPPKPKDTLMISRTPEVTCVVVDVSHEDPEVQFNWYVDGVEVHNAKTKPREEQFNSTFRVVSVLTVVHQDWLNGKEYKCKVSNKGLPAPIEKTISKTKGQPREPQVYTLPPSREEMTKNQVSLTCLVKGFYPSDIAVEWESNGQPENNYKTTPPMLDSDGSFFLYSKLTVDKSRWQQGNVFSCSVMHEALHNHYTQKSLSLSPGK
light: B4 light with V29I, K31R, Q89A, V90A, S93Y, P95L, N96G, A97G, G102D
notes: Made in HEK293 cells or in glycoengineered Pichia
Turning to B5, the Kd worked out at 5.75 nM in assay [4]; 5.75 nM in [1]; 4.2 nM in assay [5]; 8.61 nM in [7]; 5.75 nM in [8]. Also, in [10], the half-inhibitory concentration (IC50) was found to be 1 nM. Moreover, the IgG IC50 (nM), inhibition of PCSK9 on LDL uptake (Exopolar assay) in [11] worked out at 11.2 nM; in assay [6], 7 nM. Further, the binding result in assay [2] and in [3] was “no binding” in each case. In addition, the “% bound (RUStability/RUBinding)” value in assay [12] is 5%.

B6: AX191 IgG2 (antibody)
heavy: B4 heavy
light: B4 light with V29I, V90A, S93Y, P95S, N96S
notes: IgG2
In turn, B6 gave an IC50 in assay [10] of 3 nM. Further, the results for the IgG IC50 (nM), inhibition of PCSK9 on LDL uptake (Exopolar assay) in assay [11] and in assay [6] were 6.6 nM and 8.7 nM, respectively. For the same molecule, the values for the Kd in assay [5] and in assay [8] were 0.625 nM and 0.846 nM, respectively. The “% bound (RUStability/RUBinding)” value in [12] came out at 1.1%.

B7: AX189 IgG2 (antibody)
heavy: B4 heavy
light: B4 light with K31R, A34T, V90A, S93Y, P95L, N96S, A97G
notes: the leaderless entry is used
In the case of B7, the IC50 in assay [10] turned out to be 6.4 nM. Also, the IgG IC50 (nM), inhibition of PCSK9 on LDL uptake (Exopolar assay) was 9 nM in [11] and 9.4 nM in [6]. The dissociation constant (Kd) in assay [1] came to 1.84 nM; in assay [5], 1.24 nM; in assay [7], 1.24 nM; in assay [8], 1.84 nM. In [12], the “% bound (RUStability/RUBinding)” value came to 0.9%.
